# Data: patent US20140366219A1, “Increasing Soybean Defense Against Pests” (priority 2011, published 2014)
# T1: NtSABP2 (Nicotiana tabacum, UniProt Q6RYA0)
# T1 sequence (Q6RYA0 1-260): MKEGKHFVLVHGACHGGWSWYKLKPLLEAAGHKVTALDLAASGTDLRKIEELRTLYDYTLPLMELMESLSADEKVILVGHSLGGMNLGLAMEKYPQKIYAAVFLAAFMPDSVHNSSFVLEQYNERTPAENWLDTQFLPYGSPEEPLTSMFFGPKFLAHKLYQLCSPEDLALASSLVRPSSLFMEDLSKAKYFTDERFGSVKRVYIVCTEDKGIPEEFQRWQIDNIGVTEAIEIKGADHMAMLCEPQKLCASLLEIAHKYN
# T2: AtMES1 (Arabidopsis thaliana, UniProt Q8S8S9)
# T2 sequence (Q8S8S9 1-263): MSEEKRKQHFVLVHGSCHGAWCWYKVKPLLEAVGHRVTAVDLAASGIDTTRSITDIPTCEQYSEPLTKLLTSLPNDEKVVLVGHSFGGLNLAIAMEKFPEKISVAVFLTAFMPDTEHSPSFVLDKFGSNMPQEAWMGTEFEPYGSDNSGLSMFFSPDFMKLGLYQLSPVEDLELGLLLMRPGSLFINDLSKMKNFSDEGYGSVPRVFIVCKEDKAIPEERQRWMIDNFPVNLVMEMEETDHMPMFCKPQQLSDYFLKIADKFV
# T3: AtMES9 (Arabidopsis thaliana, UniProt O23171)
# T3 sequence (O23171 1-256): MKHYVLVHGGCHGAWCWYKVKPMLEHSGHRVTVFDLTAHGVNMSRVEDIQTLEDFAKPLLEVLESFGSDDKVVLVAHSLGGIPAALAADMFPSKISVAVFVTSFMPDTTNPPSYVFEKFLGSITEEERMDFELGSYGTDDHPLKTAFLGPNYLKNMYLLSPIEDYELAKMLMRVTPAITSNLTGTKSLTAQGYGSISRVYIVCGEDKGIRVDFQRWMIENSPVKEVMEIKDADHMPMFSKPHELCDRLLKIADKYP
# What was measured:
# [1] = target: T1, NtSABP2; conditions: esterase activity toward MeSA; cited from earlier work
# [2] = system: PtSABP2-2; conditions: esterase activity toward MeSA; cited from earlier work
# [3] = target: T2, AtMES1; conditions: esterase activity toward MeSA; cited from earlier work
# [4] = target: T3, AtMES9; conditions: esterase activity toward MeSA; cited from earlier work
# [5] = system: PtSABP2-1; conditions: esterase activity toward MeSA; cited from earlier work
# [6] = system: StMES1; conditions: esterase activity toward MeSA; cited from earlier work
# [7] = system: SCN race 2; experiment: Nematode infection and demographics assay in transgenic soybean hairy roots; format: in vivo, Heterodera glycines; conditions: for reduction of susceptibility: susceptibility of vector control in susceptible background set at 100%; for (J3+J4)/total SCN ratio: overexpressing transgenic hairy roots, two weeks after inoculation
# From the text: The soybean hairy root transformation system by infection with A. rhizogenes harboring the target genes were modified and used to study soybean resistance against SCN. A. rhizogenes K599 harboring the target gene, vector control and A. rhizogenes K599 alone were used to inoculate the TN02-275 soybeans, which are susceptible to SCN race 2. To better evaluate the resistance of the target gene, A. rhizogenes harboring the vector control and A. rhizogenes K599 alone were also used to inoculate the TN02-226 soybeans, which are resistant to SCN race 2. Generation of soybean hairy roots was modified as follows: First, soybean seeds were sterilized with chlorine gas. Second, a single layer of mature soybean seeds with intact seed coats were placed in open Petri dish, which was put in a bell jar desiccator within a fume hood. A beaker with 100 ml bleach was also placed in the desiccator and added 5 ml concentrated (12N) HCl along the side of the beaker. Then the seeds were kept in the closed desiccator immediately and maintained in the chlorine gas atmosphere overnight (about 16 h). After sterilization, seeds were transferred to the autoclaved filter paper moistened with sterilized distilled water in the Petri dishes for germination in a laminar flow hood. The germinated soybean seeds were sowed in sterilized vermiculite and six seeds were grown in each cell of 18-cell germination tray. The overnight cultured bacteria lawn of A. rhizogenes K599 with binary vector pJL-OFP, pJL-OFP-35S::GUS or pJL-OFP-35S::GmSAMT1 from LB medium plate containing […] kanamycin, or a culture of A. rhizogenes K599 lacking the binary vector grown in LB medium without any antibiotics was collected and suspended in 1 ml of sterile distilled water, respectively. Soybean cotyledonary nodes and upper hypocotyls of 5-day-old seedlings with unfolded cotyledons were stabbed three times by the syringe containing the bacterial suspension. In the first week, the trays were covered with the sterile transparent lids to retain high humidity. In the subsequent three weeks, plants were transferred into pots and the A. rhizogenes wounding sites were covered by wet sterile vermiculite to continually keep high humidity. Each day soybean plants were watered using sterile B&D solution containing 1 mM CaCl2, 0.5 mM KH2PO4, 10 μM Fe-citrate, 0.25 mM MgSO4, 0.25 mM K2SO4, 1 μM MnSO4, 2 μM H3BO4, 0.5 μM ZnSO4, 2 μM CuSO4, 0.1 μM CoSO4, 0.1 μM Na2MoO4, and 1 mM KNO3. The growth conditions for soybean plants were 12 h light/12 h dark at 28° C./25° C. with irradiance from fluorescent bulbs at 150-200 μmol m^−2·s^−1. After about four weeks, the hairy roots grew to approximately 10 cm in length. Soybean transgenic roots were detected based on OFP expression, using a fluorescence stereomicroscope (Olympus SZX12 fluorescence microscope and OFP filter). The tap root and non-transgenic roots were excised under the wounding site. Transgenic roots harboring pJL-OFP-35S::GUS screened by OFP signal were immersed in GUS solution (1 mM X-Gluc), 0.5 mM potassium ferrocyanide, 0.1% (v/v) TRITON™ X-100, 100 mM sodium phosphate buffer pH 7.0), and incubated at 37° C. overnight. In the following day, the X-Gluc solution was discarded. The roots were washed repeatedly with 70% ethanol to remove chlorophyll. Transgenic roots with visual GUS stain were recorded.
# To easily compare the SCN infection, one transgenic root was left for the SCN inoculation. […]
# [8] = system: GmICS1 (Glyma01g25690); experiment: qRT-PCR of GmICS1 in transgenic hairy roots; parameters: species or system soybean; conditions: Williams 82 transgenic hairy roots, without SCN treatment
# [9] = system: GmICS2 (Glyma03g17420); experiment: qRT-PCR of GmICS2 in transgenic hairy roots; parameters: species or system soybean; conditions: Williams 82 transgenic hairy roots, without SCN treatment
# [10] = substrate: COC(=O)c1ccccc1O; experiment: Two-step radiochemical methyl ester esterase assay, kinetic parameters of GmSABP2-1; format: biochemical, soybean; conditions: other: MeSA 5 μM to 100 μM, Lineweaver-Burk; 25.0 °C
# Procedure: A two-step radiochemical esterase assay was performed to determine the activity of E. coli-expressed Glyma16g26060 following a protocol previously reported by (Forouhar et al., Proc. Natl. Acad. Sci. USA 102: 1773-1778, 2005). The reaction of the first step was the reaction of substrate 10 μM MeSA and purified recombinant E. coli-expressed Glyma16g26060 for 30 min at 25° C. After that, the sample was boiled to stop the reaction and denature the enzyme. The second reaction step was started with the addition of 3 μM ^14C labeled S-adenosyl-L-methionine (SAM) with a specific activity of 51.4 mCi/mmol (Perkin Elmer, Boston, Mass., USA), and respective known purified methyltransferase with high activity. Here, GmSAMT1 mentioned previously was used for SA methyltransferase enzyme. The reaction was preceded for 30 min at 25° C. Then radiolabeled products were extracted and the radioactivity was counted using a liquid scintillation counter.
# Appropriate enzyme concentrations and incubation time were determined in time-course assays so that the reaction velocity was linear during the assay period. To determine the Km for MeSA, the concentrations of MeSA were independently varied in the range from 5 μM to 100 μM. Lineweaver-Burk plots were made to obtain apparent Km value. Optimal pH for GmSABP2-1 was assayed from pH 6.0 to pH 9.0. Final values are an average of three independent measurements.
molecule,measurement,setting,value
"COC(=O)c1ccccc1O [MeSA, methyl salicylate]",Km,[1],8.6 µM
same,Km,[2],24.6 µM
same,Km,[3],57.3 µM
same,Km,[4],147 µM
same,Km,[5],68.2 µM
same,Km,[6],57.9 µM
"GmSAMT1: soybean salicylic acid methyltransferase gene (SEQ ID NO: 1), over-expressed in transgenic hairy roots via pJL-OFP-35S::GmSAMT1 (nucleic acid, Glycine Max) DNA: ATGGAAGTAGCACAGGTACTCCACATGAACGGTGGCGTTGGAGACGCAAGCTATGCAAACAACTCCCTTGTTCAGCAAAAGGTGATTTGTTTGACAAAGCCCATAAGAGAGGAAGCCATAAGAAGCCTCTATTGCAGCACACACCCCAGAAGCTTGGCAATTGCAGATTTGGGTTGCTCTTCTGGACCAAACACTTTATTTGTTGTGTCTGAATTCATAAAAATTGTGGAGAAGCTTTGCCGAGAGCTGAACCACAAATCTCCAGAATACAAAGTCTTTCTGAATGATCTCCCTGGGAATGACTTCAACAACATCTTCAAGTCTCTTGACAGCGTCAAAGAGAAATTGTGTGATGAAATGGAAAGTGGGATCGGTCCATGCTACTTCTCGGGTGTTCCCGGTTCTTTCTATGGAAGGGTTTTCCCATATCAAAGTCTTCATTTTGTCCATTCCTCATACAGCCTTCAATGGCTATCTAAGGTTCCTGAGGGTGTAGACAACAACAAGGGCAATGTTTACATAGGCAGTACGAGCCCCAAAAATGTTGTGAGAGCTTACTATGAGCAATTTCAGAGAGATTTCTCTCTTTTTCTCAAGTGTCGTGCAGAGGAATTGGTTGAAGGAGGACGCATGGTTCTCACATTTTTGGGAAGAAGAAGCGATGATCCATCTAGCAAGGATGGTTGCTACATTTGGGAGCTTTTGGCTACTGCTCTTAGTGATATGGTCTTGCAGGGAATCATAAGAGAAGAGCAATTAGATACTTTTAACATCCCTCAATACACTCCATCCCCATCTGAAGTGAAATTGGAAGTTCTTAAAGAAGGATCATTCGCCATCAATCGTCTAGAGGTTTCTGAGGTGAATTGGAATGCTCTCGATGAGTGGAATGCTCTAGACTTTGAATCTGAAAGGTCTGAATCACTTAGTGATGGTGAATACAATGTGGCACAGTGCATGAGGGCTGTGGCAGAACCTATGCTGATTAGCCACTTTGGTGAAGCTATCATTGAAGAGGTTTTTTGCCGCTACCAGCAAATCTTGGCTGAACGTATGTCCAAGGAGAAAACCAAGTTCATCAATGTTACCATATTATTGACTAGAAAAGCATAA",reduction of susceptibility,[7]; TN02-275 background,85.6%
same,reduction of susceptibility,[7]; Williams 82 background,71.2%
same,(J3+J4)/total SCN ratio,[7]; TN02-275 background,3.4%
same,(J3+J4)/total SCN ratio,[7]; Williams 82 background,5.3%
same,GmICS1 transcript abundance relative to controls,[8],5.3 times
same,GmICS2 transcript abundance relative to controls,[9],8.2 times
GmSABP2-1 (Glycine max) (protein) MGSQNCMDRKHYVLVHGACHGAWCWYKLKPRLESAGHKVTVLDLAASGTNMKKIEDVDTFSEYSAPLLQLMATIPSNEKLVLVGHSLGGLNIALAMEKFPEKVAVGVFLTAFAPDTEHHPSYVLEKYNERTPLAAWLDTEFAPSGNKTSMFFGPNFLSDKLYQLSPIEDLELAKTLARPSSLFMEDLTKQKNFSKEGYGSVPRAFIVCTEDLGIPLEYQLLMIQNVGFNDVVEVKDADHMVMLCKPQELFDSLQQIATKYA,Km,[10],46.2 ± 2.2 µM
